Read-outs that look alike come from different tables or passages of the source.
Assays:
Assay in all cases: crystal structure
[1] = target: Chaetomium thermophilum Ahp1 C30S (Chaetomium thermophilum)
[2] = target: Chaetomium thermophilum Ahp1 C30S (Chaetomium thermophilum); remark: listed apart in the source
[3] = target: Chaetomium thermophilum Ahp1, wild type (Chaetomium thermophilum)

stoichiometry N [1]	stoichiometry N [2]	stoichiometry N [3]	Substance
2	2		Chaetomium thermophilum Ahp1 C30S (enzyme)
		2	Chaetomium thermophilum Ahp1, wild type (enzyme)

From paper PMC9574740
